In patent US20150030596A1 (SAMSUNG ELECTRONICS, published 2015):

How the values were obtained:
[1] = target: T1, EGFR-Fc (#344-ER, R&D Systems) (UniProt P00533 25-645); assay: SPR (Biacore T100); ME-19 captured on human Fab binder on a CM5 chip, EGFR-Fc as analyte
T1 construct: Bought reagent; also called EGFR (R&D systems); EGFR (#344-ER, R&D Systems); not shown: Fc part of the bought fusion protein; not described
Method: Human Fab binder (GE Healthcare) was immobilized on the surface of CM5 chip (#BR-1005-30, GE) according to the manufacturer's manual. […] 10 mM Glycine-HCl (pH 1.5) solution was added hereto, to regenerate the surface. To determine the affinity, the obtained data were fitted using BIA evaluation software (GE Healthcare, Biacore T100 evaluation software).

[2] = target: T1, EGFR-Fc (#344-ER, R&D Systems); assay: competitive ELISA: plate coated with EGFR (#344-ER, 0.25 ug/well), 20 ng/ml biotinylated EGF mixed with serially diluted ME-19, streptavidin/HRP detection, OD405
Method: 96-well immunoplate (Nunc) was coated with EGFR (#344-ER, R&D Systems) in the amount of 0.25 μg/well. […] The resulted reacting product was washed with PBS containing 0.05% (w/v) of Tween 20. HRP (Horse radish peroxidase) conjugated […] (#21140, Thermo scientific) was added to the each well and reacted at room temperature for 1 hour.

[3] = target: T1, EGFR-Fc (#344-ER, R&D Systems); assay: SPR (Biacore T100); ME-28 captured on human Fab binder on a CM5 chip, EGFR-Fc as analyte
Method: The binding affinity of bispecific chimeric protein ME-28 to EGFR was examined using Biacore T100 (GE). Human Fab binder (GE Healthcare) was immobilized on the surface of CM5 chip (#BR-1005-30, GE) according to the manufacturer's manual. About 90˜120 RU of the bispecific chimeric protein ME-28 was captured, and various concentrations of EGFR-Fc (#344-ER, R&D Systems) were added to the captured bispecific chimeric protein. 10 mM Glycine-HCl (pH 1.5) solution was added hereto, to regenerate the surface. To determine the affinity, the obtained data were fitted using BIA evaluation software (GE Healthcare, Biacore T100 evaluation software).

| Kd [1] [nM] | koff [1] [s⁻¹] | kon [1] [M⁻¹ s⁻¹] | IC50 (read off the curve) [2] [µg/mL] | Kd [3] [nM] | koff [3] [s⁻¹] | kon [3] [M⁻¹ s⁻¹] | Binder |
| --- | --- | --- | --- | --- | --- | --- | --- |
| 0.35 | 6.4e-05 | 180000 | ~0.5 | – | – | – | bispecific chimeric protein ME-19 (L3-1Y-IgG2 heavy chain-(G4S)2-anti-EGFR DARPin-01) (bispecific antibody, The DARPin is fused to the C-terminus of each heavy chain; also called anti-c-Met/anti-EGFR DARPin bispecific chimeric protein) heavy: EVQLVESGGGLVQPGGSLRLSCAASGFTFTDYYMSWVRQAPGKGLEWLGFIRNKANGYTTEYSASVKGRFTISRDNSKNTLYLQMNSLRAEDTAVYYCARDNWFAYWGQGTLVTVSSASTKGPSVFPLAPCSRSTSESTAALGCLVKDYFPEPVTVSWNSGALTSGVHTFPAVLQSSGLYSLSSVVTVPSSNFGTQTYTCNVDHKPSNTKVDKTVERKCCVECPPCPAPPVAGPSVFLFPPKPKDTLMISRTPEVTCVVVDVSHEDPEVQFNWYVDGVEVHNAKTKPREEQFNSTFRVVSVLTVVHQDWLNGKEYKCKVSNKGLPAPIEKTISKTKGQPREPQVYTLPPSREEMTKNQVSLTCLVKGFYPSDIAVEWESNGQPENNYKTTPPMLDSDGSFFLYSKLTVDKSRWQQGNVFSCSVMHEALHNHYTQKSLSLSPGKGGGGSGGGGSDLGKKLLEAARAGQDDEVRILMANGADVNADDTWGWTPLHLAAYQGHLEIVEVLLKNGADVNAYDYIGWTPLHLAADGHLEIVEVLLKNGADVNASDYIGDTPLHLAAHNGHLEIVEVLLKHGADVNAQDKFGKTAFDISIDNGNEDLAEILQ light: DIQMTQSPSSLSASVGDRVTITCKSSQSLLASGNQNNYLAWYQQKPGKAPKMLIIWASTRVSGVPSRFSGSGSGTDFTLTISSLQPEDFATYYCQQSYSRPYTFGQGTKVEIKRTVAAPSVFIFPPSDEQLKSGTASVVCLLNNFYPREAKVQWKVDNALQSGNSQESVTEQDSKDSTYSLSSTLTLSKADYEKHKVYACEVTHQGLSSPVTKSFNRGEC |
| – | – | – | – | < 0.01 | < 3.4e-05 | 110000 | bispecific chimeric protein ME-28 (L3-1Y-IgG2 heavy chain-(G4S)2-anti-EGFR DARPin-01-(G4S)2-anti-EGFR DARPin-69) (bispecific antibody, Two DARPins are linked in tandem to each heavy chain C-terminus of the IgG; also called anti-c-Met/anti-EGFR (E01+E69) DARPins bispecific chimeric protein) heavy: EVQLVESGGGLVQPGGSLRLSCAASGFTFTDYYMSWVRQAPGKGLEWLGFIRNKANGYTTEYSASVKGRFTISRDNSKNTLYLQMNSLRAEDTAVYYCARDNWFAYWGQGTLVTVSSASTKGPSVFPLAPCSRSTSESTAALGCLVKDYFPEPVTVSWNSGALTSGVHTFPAVLQSSGLYSLSSVVTVPSSNFGTQTYTCNVDHKPSNTKVDKTVERKCCVECPPCPAPPVAGPSVFLFPPKPKDTLMISRTPEVTCVVVDVSHEDPEVQFNWYVDGVEVHNAKTKPREEQFNSTFRVVSVLTVVHQDWLNGKEYKCKVSNKGLPAPIEKTISKTKGQPREPQVYTLPPSREEMTKNQVSLTCLVKGFYPSDIAVEWESNGQPENNYKTTPPMLDSDGSFFLYSKLTVDKSRWQQGNVFSCSVMHEALHNHYTQKSLSLSPGKGGGGSGGGGSDLGKKLLEAARAGQDDEVRILMANGADVNADDTWGWTPLHLAAYQGHLEIVEVLLKNGADVNAYDYIGWTPLHLAADGHLEIVEVLLKNGADVNASDYIGDTPLHLAAHNGHLEIVEVLLKHGADVNAQDKFGKTAFDISIDNGNEDLAEILQGGGGSGGGGSDLGKKLLEAARAGQDDEVRILMANGADVNADDNAGRTPLHLAANFGHLEIVEVLLKNGADVNAKGHHCNTPLHLAAWAGHLEIVEVLLKYGADVNADDDEGYTPLHLAADIGDLEIVEVLLKYGADVNAWDMYGRTPLHLAASAGHLEIVEVLLKYGADVNAQDKFGKTAFDISIDNGNEDLAEILQ light: DIQMTQSPSSLSASVGDRVTITCKSSQSLLASGNQNNYLAWYQQKPGKAPKMLIIWASTRVSGVPSRFSGSGSGTDFTLTISSLQPEDFATYYCQQSYSRPYTFGQGTKVEIKRTVAAPSVFIFPPSDEQLKSGTASVVCLLNNFYPREAKVQWKVDNALQSGNSQESVTEQDSKDSTYSLSSTLTLSKADYEKHKVYACEVTHQGLSSPVTKSFNRGEC |
